Experimental data taken from patent US10479836B2, “Method for treating pulmonary hypertension with interleukin-5 receptor antibody” (University of Toyama, priority 2015, dated 2019).

B1: H7-1: core fucose-deficient rat/human chimeric antibody of anti-IL-5R rat monoclonal antibody H7, human IgG1 constant region (antibody, V domains shown)
VH: EVQLQQSGAELGKPGTSVKLSCKVSGYNIKNTYIHWVNQRPGKGLEWIGRIDPANGNPIYAEKFKNKATLTADTSSNTAYMQLSQLKSDDTAIYFCAMHRGHSMGPGPYVMDAWGQGASVTVSS
VL: DIQMTQSPASLSASLGETVTIECRTSEDIYNGLAWYQQKPGKSPQLLIYNANSLHTGVPSRFSGSGSGTQYSLKINSLQSEDVASYCCQQYSNYPFTFGSGTKLEIK
B2: H7-3: N-linked sugar chain-deficient H7 chimeric antibody, human IgG1 (N297A), lacking ADCC activity (antibody, V domains shown)
VH: B1 VH
VL: B1 VL

Experiments:
[1] = system: rIL-33-induced pulmonary vascular wall thickening; assay: rIL-33-induced pulmonary arterial wall thickening, Heath-Edwards grading of lung tissue; assay type: in vivo, mouse; settings: IL-5+/+ mice given rIL-33; intrabronchial administration on days 7 and 14; compared with PBS group; FIG. 8
Procedure: Therefore, the degree of vascular wall thickening in IL-5^+/+ mice and IL-5^V/V mice was quantitatively graded on the basis of the Heath-Edwards grading system. On days 0, 7, and 14, 400 ng of rIL-33 was administered to each mouse. On day 21, lung tissues were resected and subjected to pathological observation to conduct tissue classification on the basis of the Heath-Edwards grading system.
In this grading system, evaluation was carried out according to grade 1: medial thickening, grade 2: intimal thickening, grade 3: advanced intimal thickening and medial thickening, and grade 4; plexiform lesion in addition to advanced intimal thickening and medial thickening.
In an experimental system similar to that of Example 3, in order to confirm the inhibitory effect of an anti-IL-5 neutralizing antibody on intimal thickening and medial thickening, 100 μg of an anti-IL-5 rat monoclonal antibody (NC17) (Hitoshi et al., Int. Immunol., 1991; 3; 135-139) or a rat IgG control antibody (manufactured by Sigma-Aldrich Co., LLC) was intraperitoneally administered to each IL-5^+/+ mouse for 3 consecutive days (a total of 3 times) from two days before rIL-33 administration day. Then, on day 21, lung tissues were resected and subjected to pathological observation to conduct tissue classification on the basis of the Heath-Edwards grading system. […]

[2] = system: mouse IL-5Rα-expressing cell Y16; assay: Antigen binding activity of chimeric antibodies on Y16 cells by FCM; assay type: cell-based; settings: 0.6-10000 ng/mL antibody, 4° C. 60 min; FIG. 12
Procedure: The chimeric antibodies prepared in Example 8 were evaluated for their antigen binding activity using a mouse-derived cell line Y16 expressing IL-5R. The Y16 cells were washed with SM (staining medium containing 2% FCS, 0.05% NaN3, and 1 mM EDTA in PBS). Then, Mouse BD Fc Block (manufactured by Becton, Dickinson and Company) was added thereto at a concentration of 5 μg/mL, and the mixture was left standing at 4° C. for 30 min. The cells were inoculated at a cell number of 1×10^5 cells/well to a 96-well U-bottom plate, and each chimeric antibody adjusted to a final concentration of 10000, 2500, 625, 156, 39, 10, 2.4, or 0.6 ng/mL was added thereto, followed by reaction at 4° C. for 60 min. The rat/human chimeric control antibodies used were rtDNP-1 hIgG1 (DF) antibody (KM8808) and rtDNP-1 hIgG1 (N297A) antibody (KM6161). The nucleotide sequences and amino acid sequences of the variable regions of each isotype control antibody are shown in SEQ ID NOs: 29 to 34. After washing of the cells with SM, Goat F(ab′)2 Anti-Human IgG PE (γ chain specific) (manufactured by Southern Biotech) diluted 500-fold with SM was added thereto, followed by reaction at 4° C. for 60 min. After washing of the cells with SM, the cells were resuspended in 50 μL of SM. Fluorescence intensity was measured by FCM (flow cytometer FACS Canto II (manufactured by Becton, Dickinson and Company)). The data was analyzed using FlowJo 7.65 (manufactured by Tomy Digital Biology Co., Ltd.) to calculate a Geomean value at each concentration.

Y16 cells = assay: ADCC activity against Y16 cells with human PBMC effector cells (LDH release); assay type: cell-based, mouse; settings: 4 hrs, 0.0001-1000 ng/mL (control antibodies 1000 ng/mL), FIG. 13
Procedure: The H7 recombinant chimeric antibodies prepared in Example 8 were evaluated for their ADCC activity against Y16 cells using frozen human peripheral blood mononuclear cells (PBMCs) (manufactured by AllCells) as effector cells. The frozen human PBMCs were shake-cultured (37° C., 5% CO2, overnight) in RPMI1640 medium containing 5% FBS. The Y16 cells (target cells) and the human PBMCs (effector cells) were washed with ADCC assay medium (RPIM1640 containing 5% dialyzed FBS) and adjusted to cell densities of 2×10^5 cells/mL and 3×10^6 cells/mL, respectively. The cells were washed twice with a medium and then suspended into cell densities of 4×10^5 cells/mL. Each chimeric antibody adjusted to a final concentration of 0.0001, 0.001, 0.01, 0.1, 1, 10, 100, or 1000 ng/mL, the target cells (2×10^4 cells/well), and the effector cells (5×10^5 cells/well) were added in this order at 50 μL/well to a 96-well U-bottom plate. The control antibodies used were the rtDNP-1 hIgG1 (DF) antibody (KM8808) and the rtDNP-1 hIgG1 (N297A) antibody (KM6161) of Example 10 adjusted to a final concentration of 1000 ng/mL. The plate was centrifuged (500 rpm, 5 min) and then left standing in an incubator (37° C., 5% CO2, 4 hrs). The plate was centrifuged (1500 rpm, 5 min) to recover a supernatant at 50 μL/well into a 96-well Flat-bottom plate (manufactured by Sumitomo Bakelite Co., Ltd.). Lactate dehydrogenase (LDH) activity in the supernatant was detected using CytoTox 96 Non-Radioactive Cytotoxicity Assay (manufactured by Promega Corp.). Absorbance at 490 nm was measured using a plate reader SPECTRA MAX 340 PC384 (manufactured by Molecular Devices, LLC). The ADCC activity (%) was calculated according to the following equation using background-corrected measurement values. Cytotoxicity=[[Absorbance of the sample]−[Absorbance derived from spontaneous release from the target cells and the effector cells]]/[[Absorbance derived from total release from the target cells]−[Absorbance derived from spontaneous release from the target cells]]

mouse FcγRIV = molecular target: T1, mouse FcγRIV (Mus musculus, UniProt A0A0B4J1G0); assay: Biacore steady state affinity for mouse FcγRIV; assay type: binding; settings: Biacore T-200, Steady State Affinity mode
T1 construct: purchased R&D Systems, Inc
T1 sequence (A0A0B4J1G0 21-249): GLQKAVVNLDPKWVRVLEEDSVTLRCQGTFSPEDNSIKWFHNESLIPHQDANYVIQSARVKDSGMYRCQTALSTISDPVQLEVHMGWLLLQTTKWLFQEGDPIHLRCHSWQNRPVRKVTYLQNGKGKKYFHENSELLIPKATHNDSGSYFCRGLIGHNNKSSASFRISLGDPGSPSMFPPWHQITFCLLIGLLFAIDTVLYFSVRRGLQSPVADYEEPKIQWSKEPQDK
Procedure: (§1) The various H7 chimeric antibodies prepared in Example 8 and the parent antibody H7 rat IgG2a-type antibody were evaluated for their affinity for mouse FcγR using Biacore T-200 (manufactured by GE Healthcare Japan Corp.). An anti-tetra His mouse antibody (manufactured by Qiagen N.V.) was immobilized with 8000 RU as a guideline onto CM5 sensor chip using an amine coupling kit (all manufactured by GE Healthcare Japan Corp.). The coupling buffer used was 10 mM sodium acetate (pH 4.5). His tag-fused mouse FcγRI, IIb, III, and IV proteins (all manufactured by R&D Systems, Inc.) each dissolved at 2 μg/mL in HBS-EP(+) were captured as ligands at 2 μL/min for 30 sec. Then, each antibody serially diluted into concentrations of […] was added thereto as an analyte by the multicycle method. The flow rate was 5 μL/min, and the contact time and the dissociation time were both set to a condition of 240 sec. The analysis was carried out using Biacore T200 Evaluation software on the Steady State Affinity mode. A rise in binding activity against FcγRI and FcγRIV involved in in vivo mouse effector activity was observed by the alteration of the H7 constant region from rat IgG2a type to hIgG1 type.

mouse FcγRIIb = molecular target: T2, mouse FcγRIIb (Mus musculus, UniProt P08101); assay: Biacore steady state affinity for mouse FcγRIIb; assay type: binding; settings: Biacore T-200, Steady State Affinity mode
T2 construct: purchased R&D Systems, Inc
T2 sequence (P08101 30-330): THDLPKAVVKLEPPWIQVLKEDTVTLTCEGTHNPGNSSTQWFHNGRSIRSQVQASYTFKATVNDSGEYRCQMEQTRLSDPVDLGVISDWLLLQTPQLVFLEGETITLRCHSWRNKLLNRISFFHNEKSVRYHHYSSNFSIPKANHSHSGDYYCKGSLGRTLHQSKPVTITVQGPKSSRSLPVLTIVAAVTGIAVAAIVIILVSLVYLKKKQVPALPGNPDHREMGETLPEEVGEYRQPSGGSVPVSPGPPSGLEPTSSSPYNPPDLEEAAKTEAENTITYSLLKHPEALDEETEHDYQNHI
Procedure: as §1

mouse FcγRI = molecular target: T3, mouse FcγRI (Mus musculus, UniProt P26151); assay: Biacore steady state affinity for mouse FcγRI; assay type: binding; settings: Biacore T-200, Steady State Affinity mode
T3 construct: purchased R&D Systems, Inc
T3 sequence (P26151 25-404): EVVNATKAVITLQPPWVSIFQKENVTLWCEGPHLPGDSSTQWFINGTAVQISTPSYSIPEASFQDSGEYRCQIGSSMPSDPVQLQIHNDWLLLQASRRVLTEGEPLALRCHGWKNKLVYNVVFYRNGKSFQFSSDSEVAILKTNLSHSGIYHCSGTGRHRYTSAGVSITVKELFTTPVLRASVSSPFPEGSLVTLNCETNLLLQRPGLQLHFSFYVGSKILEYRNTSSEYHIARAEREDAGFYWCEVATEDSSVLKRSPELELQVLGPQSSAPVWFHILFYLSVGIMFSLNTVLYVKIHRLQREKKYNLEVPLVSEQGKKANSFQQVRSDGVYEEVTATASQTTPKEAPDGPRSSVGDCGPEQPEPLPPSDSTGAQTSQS
Procedure: as §1

mouse FcγRIII = molecular target: T4, mouse FcγRIII (Mus musculus, UniProt P08508); assay: Biacore steady state affinity for mouse FcγRIII; assay type: binding; settings: Biacore T-200, Steady State Affinity mode
T4 construct: purchased R&D Systems, Inc
T4 sequence (P08508 31-261): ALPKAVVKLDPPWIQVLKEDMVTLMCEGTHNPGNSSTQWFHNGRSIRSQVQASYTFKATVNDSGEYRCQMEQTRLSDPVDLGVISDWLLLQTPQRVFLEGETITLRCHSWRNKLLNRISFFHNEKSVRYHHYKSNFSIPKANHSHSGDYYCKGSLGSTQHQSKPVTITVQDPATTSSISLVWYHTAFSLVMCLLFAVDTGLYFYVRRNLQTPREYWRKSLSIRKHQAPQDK
Procedure: as §1

Molecule	pulmonary vascular wall thickening (histological scores, Heath-Edwards grading) [1]	antigen binding activity (fluorescence intensity, Geomean) on Y16 cells [2]	ADCC activity against Y16 cells (Y16 cells)	Kd (mouse FcγRIV) [nM]	Affinity KD for mouse FcγRIIb (mouse FcγRIIb)	Kd (mouse FcγRI) [nM]	Affinity KD for mouse FcγRIII (mouse FcγRIII)	Affinity KD for mouse FcγRIV (mouse FcγRIV)	Affinity KD for mouse FcγRI (mouse FcγRI)
CC#CCC(C)[C@H](O)/C=C/[C@@H]1[C@H]2C/C(=C/CCCC(=O)O)C[C@H]2C[C@H]1O (stereo partly shown) [iloprost]	evident decrease in pulmonary vascular wall thickening was observed	–	–	–	–	–	–	–	–
B1	–	confirmed to react equivalently	exhibited antibody concentration-dependent ADCC activity	89.5	no binding	137	no binding	–	–
B2	–	confirmed to react equivalently	none	–	no binding	–	no binding	no binding	very weak
